From patent publication US20140087995A1 (published 2014)
Numbered stars: 1 amine (or outer) side, 2 acyl side, 3 side chain; on linkers, the order of the positions; unused ones are H or OH. Bridge positions count the residues as written; N and C are the ends. * marks the point of attachment. C20 diacid = O=C(O)CCCCCCCCCCCCCCCCCCC(=O)*; γGlu = O=C(O)[C@H](CCC(=O)[*:2])N[*:1]

T1: rat calcitonin receptor (rat, UniProt P32214 25-516)
T1 construct: whole, on cells; Used as membranes prepared from the transfected cells; also called rCTR; rat calcitonin (a) receptor
T1 sequence (looked up): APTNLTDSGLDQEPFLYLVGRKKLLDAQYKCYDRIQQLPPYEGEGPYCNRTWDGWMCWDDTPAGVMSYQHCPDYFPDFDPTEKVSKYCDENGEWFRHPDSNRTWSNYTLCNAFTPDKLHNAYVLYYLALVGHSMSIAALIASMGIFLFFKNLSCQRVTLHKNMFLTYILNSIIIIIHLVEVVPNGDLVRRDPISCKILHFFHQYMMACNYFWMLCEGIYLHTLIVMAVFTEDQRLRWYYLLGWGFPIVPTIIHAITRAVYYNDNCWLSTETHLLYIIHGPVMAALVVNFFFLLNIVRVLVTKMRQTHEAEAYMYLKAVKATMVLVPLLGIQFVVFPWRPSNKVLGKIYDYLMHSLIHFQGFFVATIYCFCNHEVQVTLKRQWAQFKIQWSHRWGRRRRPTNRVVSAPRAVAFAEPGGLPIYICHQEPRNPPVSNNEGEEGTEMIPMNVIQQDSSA

T2: rat amylin receptor (rat calcitonin receptor + rat RAMP 3) (rat, UniProt P32214 25-516; Q9JJ73 23-147)
T2 construct: whole, on cells; Used as membranes prepared from the transfected cells; also called rAmylin-R; rat amylin 3(a) receptor
T2 sequence (looked up) 1: T1 sequence (looked up)
T2 sequence (looked up) 2: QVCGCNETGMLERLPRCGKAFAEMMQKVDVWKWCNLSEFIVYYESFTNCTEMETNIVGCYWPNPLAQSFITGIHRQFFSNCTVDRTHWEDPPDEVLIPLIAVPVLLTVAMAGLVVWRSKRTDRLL

T3: human calcitonin receptor (human, UniProt P30988 25-474)
T3 construct: whole, on cells; Used as membranes prepared from the transfected cells (Assay VII); also called hCTR; hCT
T3 sequence (looked up): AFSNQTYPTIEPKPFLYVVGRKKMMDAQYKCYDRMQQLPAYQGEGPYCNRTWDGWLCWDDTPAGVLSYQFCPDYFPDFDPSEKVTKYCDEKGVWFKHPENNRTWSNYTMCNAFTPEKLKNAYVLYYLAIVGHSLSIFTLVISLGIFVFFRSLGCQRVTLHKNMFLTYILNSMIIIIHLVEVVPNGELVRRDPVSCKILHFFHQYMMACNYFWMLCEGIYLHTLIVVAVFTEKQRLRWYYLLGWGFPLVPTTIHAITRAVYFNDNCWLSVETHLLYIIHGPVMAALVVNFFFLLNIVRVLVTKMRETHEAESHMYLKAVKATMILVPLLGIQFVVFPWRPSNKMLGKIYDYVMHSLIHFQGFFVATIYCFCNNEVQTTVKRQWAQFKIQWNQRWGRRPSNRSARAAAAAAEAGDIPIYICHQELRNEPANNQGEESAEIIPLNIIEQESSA

B1: N^α1-[(4S)-4-carboxy-4-(19-carboxynonadecanoylamino)butanoyl]-[Arg17,Pro21,Pro27,Pro34,Glu35]-h-amylin (peptide)
peptide: {C20 diacid-γGlu}-KCNTATCATQRLANFLRHSSPNFGAIPSSTNVGPETY-NH2
modifications: disulfide 2-7
SMILES: CC[C@H](C)[C@H](NC(=O)[C@H](C)NC(=O)CNC(=O)[C@H](Cc1ccccc1)NC(=O)[C@H](CC(N)=O)NC(=O)[C@@H]1CCCN1C(=O)[C@H](CO)NC(=O)[C@H](CO)NC(=O)[C@H](Cc1c[nH]cn1)NC(=O)[C@H](CCCNC(=N)N)NC(=O)[C@H](CC(C)C)NC(=O)[C@H](Cc1ccccc1)NC(=O)[C@H](CC(N)=O)NC(=O)[C@H](C)NC(=O)[C@H](CC(C)C)NC(=O)[C@H](CCCNC(=N)N)NC(=O)[C@H](CCC(N)=O)NC(=O)[C@@H](NC(=O)[C@H](C)NC(=O)[C@@H]1CSSC[C@H](NC(=O)[C@H](CCCCN)NC(=O)CC[C@H](NC(=O)CCCCCCCCCCCCCCCCCCC(=O)O)C(=O)O)C(=O)N[C@@H](CC(N)=O)C(=O)N[C@@H]([C@@H](C)O)C(=O)N[C@@H](C)C(=O)N[C@@H]([C@@H](C)O)C(=O)N1)[C@@H](C)O)C(=O)N1CCC[C@H]1C(=O)N[C@@H](CO)C(=O)N[C@@H](CO)C(=O)N[C@H](C(=O)N[C@@H](CC(N)=O)C(=O)N[C@H](C(=O)NCC(=O)N1CCC[C@H]1C(=O)N[C@@H](CCC(=O)O)C(=O)N[C@H](C(=O)N[C@@H](Cc1ccc(O)cc1)C(N)=O)[C@@H](C)O)C(C)C)[C@@H](C)O
notes: Derivative of human amylin; also called compound 29
B2: N^α1-[(4S)-4-carboxy-4-(19-carboxynonadecanoylamino)butanoyl]-[Glu14,Arg17,Pro21,Pro25,Pro28,Pro29]-h-amylin (peptide)
peptide: {C20 diacid-γGlu}-KCNTATCATQRLAEFLRHSSPNFGPILPPTNVGSNTY-NH2
modifications: disulfide 2-7
SMILES: CC[C@H](C)[C@H](NC(=O)[C@@H]1CCCN1C(=O)CNC(=O)[C@H](Cc1ccccc1)NC(=O)[C@H](CC(N)=O)NC(=O)[C@@H]1CCCN1C(=O)[C@H](CO)NC(=O)[C@H](CO)NC(=O)[C@H](Cc1c[nH]cn1)NC(=O)[C@H](CCCNC(=N)N)NC(=O)[C@H](CC(C)C)NC(=O)[C@H](Cc1ccccc1)NC(=O)[C@H](CCC(=O)O)NC(=O)[C@H](C)NC(=O)[C@H](CC(C)C)NC(=O)[C@H](CCCNC(=N)N)NC(=O)[C@H](CCC(N)=O)NC(=O)[C@@H](NC(=O)[C@H](C)NC(=O)[C@@H]1CSSC[C@H](NC(=O)[C@H](CCCCN)NC(=O)CC[C@H](NC(=O)CCCCCCCCCCCCCCCCCCC(=O)O)C(=O)O)C(=O)N[C@@H](CC(N)=O)C(=O)N[C@@H]([C@@H](C)O)C(=O)N[C@@H](C)C(=O)N[C@@H]([C@@H](C)O)C(=O)N1)[C@@H](C)O)C(=O)N[C@@H](CC(C)C)C(=O)N1CCC[C@H]1C(=O)N1CCC[C@H]1C(=O)N[C@H](C(=O)N[C@@H](CC(N)=O)C(=O)N[C@H](C(=O)NCC(=O)N[C@@H](CO)C(=O)N[C@@H](CC(N)=O)C(=O)N[C@H](C(=O)N[C@@H](Cc1ccc(O)cc1)C(N)=O)[C@@H](C)O)C(C)C)[C@@H](C)O
notes: Derivative of human amylin; also called compound 6
B3: N^α1-[(4S)-4-carboxy-4-(19-carboxynonadecanoylamino)butanoyl]-[Glu14,Arg17,Pro21,Pro26,Pro37]-h-amylin (peptide)
peptide: {C20 diacid-γGlu}-KCNTATCATQRLAEFLRHSSPNFGAPLSSTNVGSNTP-NH2
modifications: disulfide 2-7
SMILES: CC(C)C[C@H](NC(=O)[C@H](CCCNC(=N)N)NC(=O)[C@H](CCC(N)=O)NC(=O)[C@@H](NC(=O)[C@H](C)NC(=O)[C@@H]1CSSC[C@H](NC(=O)[C@H](CCCCN)NC(=O)CC[C@H](NC(=O)CCCCCCCCCCCCCCCCCCC(=O)O)C(=O)O)C(=O)N[C@@H](CC(N)=O)C(=O)N[C@@H]([C@@H](C)O)C(=O)N[C@@H](C)C(=O)N[C@@H]([C@@H](C)O)C(=O)N1)[C@@H](C)O)C(=O)N[C@@H](C)C(=O)N[C@@H](CCC(=O)O)C(=O)N[C@@H](Cc1ccccc1)C(=O)N[C@@H](CC(C)C)C(=O)N[C@@H](CCCNC(=N)N)C(=O)N[C@@H](Cc1c[nH]cn1)C(=O)N[C@@H](CO)C(=O)N[C@@H](CO)C(=O)N1CCC[C@H]1C(=O)N[C@@H](CC(N)=O)C(=O)N[C@@H](Cc1ccccc1)C(=O)NCC(=O)N[C@@H](C)C(=O)N1CCC[C@H]1C(=O)N[C@@H](CC(C)C)C(=O)N[C@@H](CO)C(=O)N[C@@H](CO)C(=O)N[C@H](C(=O)N[C@@H](CC(N)=O)C(=O)N[C@H](C(=O)NCC(=O)N[C@@H](CO)C(=O)N[C@@H](CC(N)=O)C(=O)N[C@H](C(=O)N1CCC[C@H]1C(N)=O)[C@@H](C)O)C(C)C)[C@@H](C)O
notes: Derivative of human amylin; also called compound 5
B4: N^α1-[(4S)-4-carboxy-4-(19-carboxynonadecanoylamino)butanoyl]-[Glu14,Arg17,Pro21,Pro25,Pro28,Pro29,Pro37]-h-amylin (peptide)
peptide: {C20 diacid-γGlu}-KCNTATCATQRLAEFLRHSSPNFGPILPPTNVGSNTP-NH2
modifications: disulfide 2-7
SMILES: CC[C@H](C)[C@H](NC(=O)[C@@H]1CCCN1C(=O)CNC(=O)[C@H](Cc1ccccc1)NC(=O)[C@H](CC(N)=O)NC(=O)[C@@H]1CCCN1C(=O)[C@H](CO)NC(=O)[C@H](CO)NC(=O)[C@H](Cc1c[nH]cn1)NC(=O)[C@H](CCCNC(=N)N)NC(=O)[C@H](CC(C)C)NC(=O)[C@H](Cc1ccccc1)NC(=O)[C@H](CCC(=O)O)NC(=O)[C@H](C)NC(=O)[C@H](CC(C)C)NC(=O)[C@H](CCCNC(=N)N)NC(=O)[C@H](CCC(N)=O)NC(=O)[C@@H](NC(=O)[C@H](C)NC(=O)[C@@H]1CSSC[C@H](NC(=O)[C@H](CCCCN)NC(=O)CC[C@H](NC(=O)CCCCCCCCCCCCCCCCCCC(=O)O)C(=O)O)C(=O)N[C@@H](CC(N)=O)C(=O)N[C@@H]([C@@H](C)O)C(=O)N[C@@H](C)C(=O)N[C@@H]([C@@H](C)O)C(=O)N1)[C@@H](C)O)C(=O)N[C@@H](CC(C)C)C(=O)N1CCC[C@H]1C(=O)N1CCC[C@H]1C(=O)N[C@H](C(=O)N[C@@H](CC(N)=O)C(=O)N[C@H](C(=O)NCC(=O)N[C@@H](CO)C(=O)N[C@@H](CC(N)=O)C(=O)N[C@H](C(=O)N1CCC[C@H]1C(N)=O)[C@@H](C)O)C(C)C)[C@@H](C)O
notes: Derivative of human amylin; also called compound 4
B5: N^α1-[(4S)-4-carboxy-4-(19-carboxynonadecanoylamino)butanoyl]-[Glu14,Arg17,Pro21,Pro26]-h-amylin (peptide)
peptide: {C20 diacid-γGlu}-KCNTATCATQRLAEFLRHSSPNFGAPLSSTNVGSNTY-NH2
modifications: disulfide 2-7
SMILES: CC(C)C[C@H](NC(=O)[C@H](CCCNC(=N)N)NC(=O)[C@H](CCC(N)=O)NC(=O)[C@@H](NC(=O)[C@H](C)NC(=O)[C@@H]1CSSC[C@H](NC(=O)[C@H](CCCCN)NC(=O)CC[C@H](NC(=O)CCCCCCCCCCCCCCCCCCC(=O)O)C(=O)O)C(=O)N[C@@H](CC(N)=O)C(=O)N[C@@H]([C@@H](C)O)C(=O)N[C@@H](C)C(=O)N[C@@H]([C@@H](C)O)C(=O)N1)[C@@H](C)O)C(=O)N[C@@H](C)C(=O)N[C@@H](CCC(=O)O)C(=O)N[C@@H](Cc1ccccc1)C(=O)N[C@@H](CC(C)C)C(=O)N[C@@H](CCCNC(=N)N)C(=O)N[C@@H](Cc1c[nH]cn1)C(=O)N[C@@H](CO)C(=O)N[C@@H](CO)C(=O)N1CCC[C@H]1C(=O)N[C@@H](CC(N)=O)C(=O)N[C@@H](Cc1ccccc1)C(=O)NCC(=O)N[C@@H](C)C(=O)N1CCC[C@H]1C(=O)N[C@@H](CC(C)C)C(=O)N[C@@H](CO)C(=O)N[C@@H](CO)C(=O)N[C@H](C(=O)N[C@@H](CC(N)=O)C(=O)N[C@H](C(=O)NCC(=O)N[C@@H](CO)C(=O)N[C@@H](CC(N)=O)C(=O)N[C@H](C(=O)N[C@@H](Cc1ccc(O)cc1)C(N)=O)[C@@H](C)O)C(C)C)[C@@H](C)O
notes: Derivative of human amylin; also called compound 7

target: T1, rat calcitonin receptor; experiment: SPA competition with 125I-calcitonin, membranes of BHK cells with rat calcitonin receptor (Assay VIII)

Compared with B1, B2 is 2.4-fold higher in IC50: 21.6 nM for the first, 51.5 nM for the second.

B3 and B4 are within 1.5-fold of each other in IC50: 4.65 nM for the first, 4.05 nM for the second.

For B5, the IC50 was 47.2 nM.

target: T2, rat amylin receptor (rat calcitonin …); experiment: SPA competition with 125I-rat amylin, membranes of BHK cells with rat calcitonin receptor + rat RAMP3 (Assay VI)

First: B1
Second: B2
The IC50 of the first is 7.4-fold lower: 0.322 nM for the first, 2.37 nM for the second.

B3 and B4 are the same in IC50: 1.3 nM for the first, 1.3 nM for the second.

B5 gave an IC50 of 1.12 nM.

target: T3, human calcitonin receptor; experiment: ratio IC50 human calcitonin receptor / IC50 human amylin receptor (Assays VII and V)
Procedure, shortened: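 Membranes (35 ng/μL final) + SPA beads, 50 mM Hepes pH 7.4 buffer with 1 mM CaCl2, 5 mM MgCl₂, 0.1% OA, 0.02% Tween20; 120 min, 25° C, shaking; centrifuged, counted; IC₅₀ by one-site binding competition.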

First: B1
Second: B2
The “Ratio hCT/hAmylin binding” value of the first is lower: 13.9 for the first, 20 for the second.

Compared with B3, B4 is higher in “Ratio hCT/hAmylin binding” value: 1.4 for the first, 2.1 for the second.

B5 was tested, and the “Ratio hCT/hAmylin binding” value was 16.5.

target: T1, rat calcitonin receptor; experiment: ratio IC50 rat calcitonin receptor / IC50 rat amylin receptor (Assays VIII and VI)

Going from B1 to B2, the “Ratio rCT/rAmylin binding” value falls from 67 to 21.7.

Going from B3 to B4, the “Ratio rCT/rAmylin binding” value falls from 3.6 to 3.1.

In the case of B5, the “Ratio rCT/rAmylin binding” value is reported as 42.
